Laboratory results as given in paper PMC11348317 (Proceedings of the National Academy of Sciences of the …, 2024).

Biological target: the molecule itself
Assay: FRET or BRET

B1: Escherichia coli transthyretin-related protein (EcTRP), single Cys variant Asn94Cys with N-terminal His5-tag, fluorophore-labelled (enzyme, UniProt P76341 24-137, looked up)
chain: AQQNILSVHILNQQTGKPAADVTVTLEKKADNGWLQLNTAKTDKDGRIKALWPEQTATTGDYRVVFKTGDYFKKQNLESFFPEIPVEFHINKVCEHYHVPLLLSQYGYSTYRGS
modifications: Cys94 labelled with DyLight 550 maleimide (FRET donor) or Alexa 647 maleimide (FRET acceptor)
- half-life of subunit exchange: > 30 h
